# Laboratory results published in the supplement of paper PMC12042874.
# ± gives the uncertainty stated by the source.
# Assay: amyloid nucleation score (Sup35N fusion, yeast selection) (log enrichment); library NNK3; higher = more nucleation; inactive = no reads after selection
# How it was run: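 On medium lacking adenine and uracil, psi-negative yeast expressing peptides of 20 random codons fused to Sup35N were grown 7 days at 30°C after a 24-hour induction with 100 μM copper sulfate. Illumina sequencing of input and output plasmid inserts gave the reads, and sequences under 100 input reads were excluded. The nucleation score is the DiMSum log enrichment of output over input reads, centred on the mode score of non-aggregating sequences.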
row,Substance,amyloid nucleation score
1,NLLSDSVDMYINAGVDILLA,inactive
2,NLNKNRLLMTMHWNRVFLMS,inactive
3,NLNYRLADSCLNSVLDRLGQ,inactive
4,NLSNIFQSNMYVTRSVNGVR,1.68 ± 0.084
5,NLSVAMRLICVTLFLVLLGI,inactive
6,NLSWVLAILCCGL,1.39 ± 0.15
7,NLTQFYWSCGEVRVTAFYGA,2.08 ± 0.079
8,NLTYNTSYAVVDVLRITCNF,2.56 ± 0.065
9,NLVSNMVSNAKVDVVVWHVQ,0.209 ± 0.54
10,NLWTTGIRTSPKNLYIVAFM,inactive
11,NLWVEGRKAQENMDPDARSR,inactive
12,NMALLEYDSMSFICRYRNRP,inactive
13,NMNSISYSQPIFRSRTRRRM,inactive
14,NMTHLFMVCAKVSMPSGDGG,inactive
15,NMYWSISDRFRIV,0.424 ± 0.71
16,NNDMCLYLTGRRFKG,inactive
17,NNLFELPWKFYEQRNVAELM,inactive
18,NNLMLV,inactive
19,NNLTEEEMDLAPTVSHYLYK,inactive
20,NNLVPYLVWYCVTRNKTNGN,inactive
21,NNNPVGILQNSCVGVIFNHS,-0.517 ± 1
22,NNRDDK,inactive
23,NNRLRGHF,inactive

row,Substance,amyloid nucleation score
1,NPECVGDAWTVVVDYTSLWE,inactive
2,NPKLG,inactive
3,NPPKDGYMLTWIIYDRKAGT,inactive
4,NQCPIRYLWL,1.43 ± 0.11
5,NQEVSTGNILGLLAVTSCRD,inactive
6,NQQWISTRVVLKAPAFERRT,inactive
7,NQVMKSNVVYYKATVNNMCF,2.09 ± 0.071
8,NRFYVD,inactive
9,NRIFSLTM,inactive
10,NRIFSVCECMVYGICECVCR,inactive
11,NRNRYMFLITITHY,inactive
12,NRSTWCW,inactive
13,NRTFNYNIQNVGSSWEL,0.233 ± 0.19
14,NRTQRISWIWVLTPSDVLVS,inactive
15,NSCLRLSSHRMMFLAIAVTC,inactive
16,NSCYFFNLHYVYHETANCFI,3.2 ± 0.068
17,NSDSFML,inactive
18,NSETRRIHSKVKLMLIVRLA,inactive
19,NSFDCVRDWLPLIF,inactive
20,NSFMCCRSWDTN,2.71 ± 0.069
21,NSFVASEFKRLYRQWSRVHE,inactive
22,NSGDGSGVRFYSDNMDTYMA,0.185 ± 0.88
23,NSGWWRVKHNTSQDGSKRSG,inactive

row,Substance,amyloid nucleation score
1,NSGYRWEKSLSWMALLGYGC,-0.788 ± 1.1
2,NSGYVYGIQCNVWVLAFMGF,2.7 ± 0.068
3,NSKGMLCWLTA,inactive
4,NSNCYPLVI,inactive
5,NSNDRK,inactive
6,NSNNSGTVKFRNIRLYSTSL,inactive
7,NSSEGDDY,inactive
8,NSTDRGLEFRTDHYHT,inactive
9,NSTKLKPYWGPG,inactive
10,NSTNMDSFGIPLNRILWMLN,inactive
11,NSVRLCRCEVIGQTIRDHGF,inactive
12,NSYFKPVKSCNLQLGEVTLQ,inactive
13,NTAPNISRSVIVCYYDDGEK,inactive
14,NTAYHKRRGW,-0.004 ± 0.71
15,NTFVPVLVFGFYYVLIMISN,inactive
16,NTGWSF,inactive
17,NTHNNIGGRYAKYGWLMRSK,inactive
18,NTIDYHYKVSCSHGYSLQSY,inactive
19,NTPVGLINYSGDTWLMAIRW,inactive
20,NVAFQCQKLTLLKGKLEPDR,0.272 ± 0.93
21,NVAGM,inactive
22,NVGMSKNVFGM,inactive
23,NVIISQA,inactive

row,Substance,amyloid nucleation score
1,NVKTGNKPRDTQSRYVLPES,inactive
2,NVLCSFYLMYGLTSAWSVS,inactive
3,NVLCSVRC,inactive
4,NVLKSRIGRFIMQIWYTNKW,inactive
5,NVRGDSRA,inactive
6,NVSFCDDASARANVYHLGKS,inactive
7,NVVCSTARIEKPMGVLCFMF,1.92 ± 0.092
8,NWDRGLTCHMYRFSNWRWGS,inactive
9,NWLMSTTFRAYGV,inactive
10,NWLSMQRTLFWP,-0.38 ± 0.5
11,NWYVECYITYSLVLYLANDS,1.69 ± 0.066
12,NYEARLSG,inactive
13,NYFYGYQACVVHGISFTMGQ,0.956 ± 0.19
14,NYLLEEEYMISCIEAITLQP,-0.345 ± 0.82
15,NYLYPKLITYYLTSGLRWII,inactive
16,NYVMRILILCSNGWLGRECV,inactive
17,NYVTLKSKGITMSWLLLDYR,inactive
18,PAERYKRSSLAKSYRLNYRS,inactive
19,PAQSQAYVLKAGGPRLDGRV,inactive
20,PCILPKRTRIIVR,inactive
21,PCLSDPSYIELNKLASVFTG,inactive
22,PCSYLCSRVFIIC,inactive
23,PCTMDESRYLVMYFHFPMSV,inactive

row,Substance,amyloid nucleation score
1,PCYDWCLQSGR,inactive
2,PDAHTKMT,0.603 ± 0.27
3,PDDKLM,inactive
4,PDVDLTTMLNNNMNYMYVKI,inactive
5,PDVNVRGGGQLVV,inactive
6,PEGVSGIAE,inactive
7,PERWSMPYIPSDLYKCLLNQ,inactive
8,PFAST,inactive
9,PFGPHYNPTM,inactive
10,PFLPAANNCVKQRCCFSGAL,inactive
11,PFNPSYIFRLLYL,inactive
12,PFPGRTLKWNLYTSQFFMAG,inactive
13,PFPHKDQYHGGGKWPDE,inactive
14,PFSFKLPR,inactive
15,PFSRTERRFYK,-0.463 ± 1.7
16,PFWVTVYMDILLVKQQPLSV,inactive
17,PGFSLFLGLRSVWKHFFCFR,inactive
18,PGNNFKNAAESFRKAYMCRR,inactive
19,PGYGS,inactive
20,PHMSLKTFSDS,inactive
21,PHVLVESLW,inactive
22,PIFHGD,inactive
23,PIIHGCDDLRDFFIARICIS,inactive

row,Substance,amyloid nucleation score
1,PISLCSWATRFCSYFDKHKL,inactive
2,PITDNHFG,-0.697 ± 1.4
3,PIVEYVFTPMF,inactive
4,PIWTHFRGPCGVEAIRETRV,inactive
5,PKFYH,inactive
6,PKGEGIMISLFLDCTRLVNG,2.11 ± 0.077
7,PKIAGFSGGTCTVA,inactive
8,PKQSIDCCHNWGDGNCFIVV,inactive
9,PKSFWVLSPIDLVIVVQVRQ,inactive
10,PKSLLVPIIRPMQVWRKFDL,inactive
11,PLCATFKDTNRNNTVYRSLF,inactive
12,PLCNCVNRENSDGMMWGYRE,inactive
13,PLDSECEKDGHDTPYDYVVL,inactive
14,PLEVLAKFFWDDWATHSMDL,inactive
15,PLEWNNGVYISGWLWVLVSW,-0.518 ± 0.63
16,PLFGRCHRWGVTMQYSLLIG,inactive
17,PLLFSRVSLDL,inactive
18,PLRLCNPLSGFVPLLFTAFR,inactive
19,PLSFIKRRFRRLAGLSRSSA,inactive
20,PLSMSHVGAGLKF,inactive
21,PLSPFYAAWDYMILCVG,inactive
22,PLVMGFIRVHCIFRRRFG,inactive
23,PLWHTWFGYAE,0.494 ± 0.24

row,Substance,amyloid nucleation score
1,PNAEGFFSVSGFCVVLNQSM,1.34 ± 0.087
2,PNHYSYQCALLKRSTEFRHA,inactive
3,PNHYWFVAQFWLFSLTACHR,0.02 ± 0.77
4,PNRFNIIHVKFRFSFYATLT,inactive
5,PPLPRFSLSFGRWLFLICHE,inactive
6,PQDQDDVKVLSRGVRYVWGH,inactive
7,PRCISSPRSPSLNVWVLKSE,inactive
8,PRIWLVAFQTKTCYPSGGWL,-1.47 ± 1.9
9,PRPLGLFTSYDNGLGYRQGQ,inactive
10,PRPWRL,inactive
11,PRWLPVDGYEDSGVVEDKES,inactive
12,PRYAVALSLD,inactive
13,PSFFRKLFLPFASYLTMCGE,inactive
14,PSFLNSMGS,inactive
15,PSLQRSQRVSEFRTM,inactive
16,PSMKL,inactive
17,PSMSADGADLSGCQLIMVLS,inactive
18,PSTDSINDV,inactive
19,PSYEAASK,inactive
20,PTAVVVGYHSYVTFRAVKCV,inactive
21,PTEVYEATYCHFTNLL,inactive
22,PTFFTSVLGFNYRVLYRIAV,inactive
23,PTIQQDWIAFYIHSCEFLVL,inactive
